{"source": "paper PMC5481817", "about": "“Developing Targeted Hybrid Imaging Probes by Chelator Scaffolding” (Bioconjugate chemistry, 2017)", "key": {"[1]": {"assay_type": "physicochemical", "details": "pH 7.4", "protocol": "(§1) [^68Ga]Sulfo-Cy7-FSC-MG and [^68Ga]Sulfo-Cy7-FSC-RGD (6 MBq) were diluted with phosphate buffered saline to a concentration of 1 μM. Subsequently 50 μL of this solution was added to six Eppendorf tubes containing 450 μL PBS and 500 μL octanol. The mixture was vortexed (1400 rpm) at RT for 15 min using a MS 3 basic vortexer (IKA, Staufen, Germany) followed by centrifugation for 2 min at 4500 rpm. Aliquots of 100 μL of both phases were transferred to plastic vials, measured in the γ-counter and logD values were calculated. For stability testing, radiolabeled tracers were diluted with 450 μL fresh human serum and 450 μL PBS as control to a concentration of 2 μM followed by incubation at 37 °C. After 1, 2, and 4 h (n = 3) 50 μL aliquots were precipitated with acetonitrile (1:1) and centrifuged for 2 min at 14 × 10^3 rpm. The supernatant was analyzed by radio-RP-HPLC to evaluate for decomposition and corresponding chromatograms are shown in Supporting Information. For protein binding measurement aliquots were analyzed by size exclusion chromatography using MicroSpin G-50 Columns (Sephadex G-50, GE Healthcare, Vienna, Austria) in triplicates. […] Column and eluate were measured in the γ-counter and percentages of nonprotein bound radiolabeled peptide (column) and protein bound radiotracer (eluate) were calculated."}, "[2]": {"experiment": "in vitro", "assay_type": "in vitro ADME, human", "details": "human, serum", "protocol": "as §1"}, "[3]": {"experiment": "physchem", "assay_type": "physicochemical", "details": "buffer or solvent", "protocol": "[^68Ga]Sulfo-Cy7-FSC-MG and [^68Ga]Sulfo-Cy7-FSC-RGD (6 MBq) were diluted with phosphate buffered saline to a concentration of 1 μM. Subsequently 50 μL of this solution was added to six Eppendorf tubes containing 450 μL PBS and 500 μL octanol. The mixture was vortexed (1400 rpm) at RT for 15 min using a MS 3 basic vortexer (IKA, Staufen, Germany) followed by centrifugation for 2 min at 4500 rpm. Aliquots of 100 μL of both phases were transferred to plastic vials, measured in the γ-counter and logD values were calculated. For stability testing, radiolabeled tracers were diluted with 450 μL fresh human serum and 450 μL PBS as control to a concentration of 2 μM followed by incubation at 37 °C. After 1, 2, and 4 h (n = 3) 50 μL aliquots were precipitated with acetonitrile (1:1) and centrifuged for 2 min at 14 × 10^3 rpm. The supernatant was analyzed by radio-RP-HPLC to evaluate for decomposition and corresponding chromatograms are shown in Supporting Information. For protein binding measurement aliquots were analyzed by size exclusion chromatography using MicroSpin G-50 Columns (Sephadex G-50, GE Healthcare, Vienna, Austria) in triplicates. First, the columns were centrifuged at 750 rcf for 1 min to remove the storage buffer. After adding 25 μL of incubation solution columns were centrifuged again for 2 min with 2000 rcf. Column and eluate were measured in the γ-counter and percentages of nonprotein bound radiolabeled peptide (column) and protein bound radiotracer (eluate) were calculated."}, "[4]": {"test_system": "A431-CCK2R cells", "experiment": "CCK-2 receptor internalization assay (radioligand)", "assay_type": "cell-based, human", "details": "for unspecific membrane bound amount: blocked with pentagastrin", "protocol": "To determine the receptor-mediated radioligand uptake A431-CCK2R cells were seeded into 12-well plates (Nunc, Thermo Scientific) with a density of 2 × 10^6 cells per well and left to grow overnight at 37 °C. At the day of the experiment each well was washed twice with fresh internalization medium (DMEM containing 1% fetal bovine serum) followed by the adjustment to a final volume of 1.2 mL with media. After dividing the plate into an unblocked and blocked compartment (6 wells each) 150 μL PBS/0.5% bovine serum albumin (BSA) solution or 150 μL blocking solution (100-fold molar excess of pentagastrin in PBS/0.5% BSA solution) were added and left for 10 min at room temperature. Hereafter, 150 μL of the radiolabeled peptide (1 nM [^68Ga]Sulfo-Cy7-FSC-MG in PBS/0.5% BSA approximately 3 × 10^4 cpm) was added to each well followed by incubation at 37 °C for 1 and 2 h, respectively. After removal of the supernatant each well was washed two times with 1 mL ice-cold internalization medium and supernatants were collected in plastic vials (wash fraction). For determination of the membrane bound radiotracer cells were incubated twice with 1 mL ice-cold 0.05 M glycine-buffer (pH 2.8) for 5 min collecting the supernatants. Finally, internalized fraction was obtained by lysing the cells with 1 mL of 2 M sodium hydroxide solution (NaOH) two times and collecting the samples. To determine the amount of radiotracer of each fraction all samples were taken for γ-counter measurement against standard solution, i.e., 150 μL radiotracer."}, "[5]": {"experiment": "in vivo", "details": "mouse", "protocol": "All animal experiments were conducted in accordance with regulations and guidelines of the Czech Animal Protection Act (No. 246/1992), and with the approval of the Czech Ministry of Education, Youth, and Sports (MSMT-22421/2013–12), and the institutional Animal Welfare Committee of the Faculty of Medicine and Dentistry of Palacky University in Olomouc. The studies were performed using female 8–10-week-old athymic BALB/c nude mice (Envigo, Horst, The Netherlands). The number of animals was reduced as much as possible (n = 3 per group and time point for all experiments) and retro-orbital (r.o.) tracer injection as well as small animal imaging was carried out under 2% isoflurane anesthesia (FORANE, Abbott Laboratories, Abbott Park, IL, USA) to minimize animal suffering.\nTumor xenografts were established near the front shoulder of mice by subcutaneous injection of 5 × 10^6 cells (U-87 MG) or 2 × 10^6 cells (A431-CCK2R) and the same amount of A431-mock cells as a control in 200 μL appropriate medium and Matrigel (1:1). The tumors were allowed to grow until they had reached a volume of 0.2 to 0.5 cm^3. To evaluate ex vivo biodistribution mice were injected with 1–2 MBq (0.05–0.14 nmol) of radiotracer per mouse and mice were sacrificed by cervical dislocation after 30 and 90 min for [^68Ga]Sulfo-Cy7-FSC-RGD and after 1 and 2 h in the case of [^68Ga]Sulfo-Cy7-FSC-MG. Tumors, blood, muscle tissue, and organs were extracted, weighed, and activity uptake of the samples was measured in the gamma counter. Results were expressed as percentage of injected dose per gram tissue (% ID/g). In vivo PET and CT images were acquired with an Albira PET/SPECT/CT small animal imaging system (Bruker Biospin Corporation, Wood-bridge, CT, USA). Xenograft bearing mice were injected with radiolabeled peptides in a dose of ~5 MBq corresponding to 1–2 μg (0.25–0.58 nmol) of peptide per mouse. Anaesthetized animals were positioned prone head first in the Albira system before the start of imaging. Static PET/CT imaging was carried out 30 and 90 min p.i. for [^68Ga]Sulfo-Cy7-FSC-RGD. Animals injected with [^68Ga]Sulfo-Cy7-FSC-MG were imaged 1 and 2 h p.i. A 10 min PET scan (axial FOV 148 mm) was performed, followed by a CT scan (axial FOV 65 mm, 45 kVp, 400 μA, at 400 projections). Scans were reconstructed with the Albira software (Bruker Biospin Corporation, Woodbridge, CT, USA) using the maximum likelihood expectation maximization (MLEM) and filtered backprojection (FBP) algorithms. After reconstruction, acquired data was viewed and analyzed with PMOD software (PMOD Technologies Ltd., Zurich, Switzerland). 3D images were obtained using VolView software (Kitware, Clifton Park, NY, USA). Near-infrared in vivo fluorescence imaging was performed with an In-Vivo MS FX PRO small animal imaging system (Bruker Biospin Corporation, Woodbridge, CT, USA). Sulfo-Cy7-FSC-MG and Sulfo-Cy7-FSC-RGD were injected in a dose of 0.25–0.58 nmol per mouse and after supine head first positioning, imaging was conducted in various time intervals up to 72 h p.i. An appropriate filter set (excitation = 730 nm and emission = 790 nm) was used for acquiring the Sulfo-Cy7-FSC-peptide - fluorescence in vivo. Identical illumination settings (acquisition time = 15 s, filters = 730/790 nm, f-stop = 2.8, field of view = 100 mm, and binning = 4 × 4) were used for acquiring all images, and fluorescence emission was normalized to photons/s/mm^2. Images were acquired and analyzed using Bruker MI SE software (Bruker Biospin Corporation, Woodbridge, CT, USA)."}, "[6]": {"test_system": "A431-CCK2R/A431-mock tumor xenograft-bearing BALB/c nude mice", "experiment": "Static micro-PET/CT imaging, A431-CCK2R/A431-mock xenografts", "assay_type": "in vivo, mouse", "details": "static PET, 60 and 120 min post-injection", "protocol": "All animal experiments were conducted in accordance with regulations and guidelines of the Czech Animal Protection Act (No. 246/1992), and with the approval of the Czech Ministry of Education, Youth, and Sports (MSMT-22421/2013–12), and the institutional Animal Welfare Committee of the Faculty of Medicine and Dentistry of Palacky University in Olomouc. The studies were performed using female 8–10-week-old athymic BALB/c nude mice (Envigo, Horst, The Netherlands). […]\nTumor xenografts were established near the front shoulder of mice by subcutaneous injection of 5 × 10^6 cells (U-87 MG) or 2 × 10^6 cells (A431-CCK2R) and the same amount of A431-mock cells as a control in 200 μL appropriate medium and Matrigel (1:1). […] Tumors, blood, muscle tissue, and organs were extracted, weighed, and activity uptake of the samples was measured in the gamma counter. Results were expressed as percentage of injected dose per gram tissue (% ID/g). […] After reconstruction, acquired data was viewed and analyzed with PMOD software (PMOD Technologies Ltd., Zurich, Switzerland). […] Near-infrared in vivo fluorescence imaging was performed with an In-Vivo MS FX PRO small animal imaging system (Bruker Biospin Corporation, Woodbridge, CT, USA). […] An appropriate filter set (excitation = 730 nm and emission = 790 nm) was used for acquiring the Sulfo-Cy7-FSC-peptide - fluorescence in vivo. […]"}}, "note": "*1 amine or outer side, *2 acyl side, *3 side chain or, on linkers, in order; H or OH if unused. Where a SMILES comes first, the peptide text is derived from it. Bridges are numbered along the chain shown (N, C = ends). Roman numbers before positions name the chains, in order. [ ]: non-standard residue; d: D form. X1 = C/C1=C/C(=O)N(O)CCC[C@H](NC(=O)CCN2C(=O)CC([*:2])C2=O)C(=O)OCC/C(C)=C\\C(=O)N(O)CCC[C@H](NC(=O)CCN2C(=O)CC([*:1])C2=O)C(=O)OCC/C(C)=C\\C(=O)N(O)CCC[C@H](NC(=O)CCCCC[N+]2=C(C=CC3=CC(=CC=C4N(C)c5ccc(S(=O)(=O)[O-])cc5C4(C)C)CCC3)C(C)(C)c3cc(S(=O)(=O)O)ccc32)C(=O)OCC1; Mpa = O=C(O)CCS"}
{"smiles": "CSCC[C@H](NC(=O)[C@H](Cc1c[nH]c2ccccc12)NC(=O)CNC(=O)[C@H](Cc1ccc(O)cc1)NC(=O)[C@H](C)NC(=O)[C@@H](CCC(=O)O)NC(=O)CCSC1CC(=O)N(CCC(=O)N[C@H]2CCCN(O)C(=O)/C=C(/C)CCOC(=O)[C@@H](NC(=O)CCN3C(=O)CC(SCCC(=O)N[C@H](CCC(=O)O)C(=O)N[C@@H](C)C(=O)N[C@@H](Cc4ccc(O)cc4)C(=O)NCC(=O)N[C@@H](Cc4c[nH]c5ccccc45)C(=O)N[C@@H](CCSC)C(=O)N[C@@H](CC(=O)O)C(=O)N[C@@H](Cc4ccccc4)C(N)=O)C3=O)CCCN(O)C(=O)/C=C(/C)CCOC(=O)[C@@H](NC(=O)CCCCC[N+]3=C(C=CC4=CC(=CC=C5N(C)c6ccc(S(=O)(=O)[O-])cc6C5(C)C)CCC4)C(C)(C)c4cc(S(=O)(=O)O)ccc43)CCCN(O)C(=O)/C=C(/C)CCOC2=O)C1=O)C(=O)N[C@@H](CC(=O)O)C(=O)N[C@@H](Cc1ccccc1)C(N)=O", "note": "(stereo partly drawn) [[^68Ga]Sulfo-Cy7-FSC-MG, metal not drawn] (I: [Mpa][dE]AYGWMDF-NH2 / II: [Mpa][dE]AYGWMDF-NH2; linker I:1-II:1 via X1)", "values": [{"measurement": "logD", "setting": "[1]", "value": "-1.9 ± 0.17"}, {"measurement": "fraction unbound at 2 μM", "setting": "[2]", "value": "< 0.3"}, {"measurement": "remaining at 1 h, 2 μM", "setting": "[3]", "value": "95.1 ± 0.2", "unit": "%"}, {"measurement": "remaining at 2 h, 2 μM", "setting": "[3]", "value": "94.9 ± 0.4", "unit": "%"}, {"measurement": "remaining at 4 h, 2 μM", "setting": "[3]", "value": "94.4 ± 0.1", "unit": "%"}, {"measurement": "internalized activity", "setting": "[4]; blocked with pentagastrin in 100-fold molar excess, 1 h", "value": "0.19 ± 0.1", "unit": "%"}, {"measurement": "internalized activity", "setting": "[4]; blocked with pentagastrin in 100-fold molar excess, 2 h", "value": "0.44 ± 0.41", "unit": "%"}, {"measurement": "unspecific membrane bound amount", "setting": "[4]; 1 h", "value": "0.13 ± 0.06", "unit": "%"}, {"measurement": "unspecific membrane bound amount", "setting": "[4]; 2 h", "value": "0.25 ± 0.23", "unit": "%"}, {"measurement": "unspecific membrane bound amount of activity", "setting": "[4]; unblocked, 1 h", "value": "0.21 ± 0.08", "unit": "%"}, {"measurement": "internalized activity", "setting": "[4]; unblocked, 1 h incubation", "value": "4.56 ± 0.39 % of total activity"}, {"measurement": "unspecific membrane bound amount of activity", "setting": "[4]; unblocked, 2 h", "value": "0.31 ± 0.29", "unit": "%"}, {"measurement": "internalized activity", "setting": "[4]; unblocked, 2 h incubation", "value": "8.75 ± 1.32 % of total activity"}, {"measurement": "tissue to tissue ratio", "setting": "[5]; female, athymic BALB/c nude, total radioactivity", "value": "< 0.5"}, {"measurement": "tissue uptake at 2 h", "setting": "[5]; accumulation in kidneys", "value": "71.1 ± 7", "unit": "%ID/g"}, {"measurement": "tissue uptake at 2 h", "setting": "[5]; accumulation in liver tissue", "value": "25.7 ± 3.3", "unit": "%ID/g"}, {"measurement": "tissue uptake at 1 h", "setting": "[5]; blood", "value": "4.7 ± 0.7", "unit": "%ID/g"}, {"measurement": "tissue uptake at 2 h", "setting": "[5]; blood", "value": "3 ± 0.5", "unit": "%ID/g"}, {"measurement": "tissue uptake at 1 h", "setting": "[5]; tumor uptake", "value": "3.1 ± 0.9", "unit": "%ID/g"}, {"measurement": "tissue uptake at 2 h", "setting": "[5]; tumor uptake", "value": "3.8 ± 0.7", "unit": "%ID/g"}, {"measurement": "PET target-to-organ contrast", "setting": "[6]", "value": "moderate target-to-organ contrast"}]}
